Our source for the IC50 values is patent US20210032331A1 (PHANES THERAPEUTICS, published 2021).

In the assay the target is T1, human LAG-3(ECD)-mFc (human, UniProt P18627 23-450).
T1 construct: also called hLAG3-mFc; human LAG-3 extracellular domain (ECD) fused to mouse Fc; not shown: mouse Fc
T1 sequence: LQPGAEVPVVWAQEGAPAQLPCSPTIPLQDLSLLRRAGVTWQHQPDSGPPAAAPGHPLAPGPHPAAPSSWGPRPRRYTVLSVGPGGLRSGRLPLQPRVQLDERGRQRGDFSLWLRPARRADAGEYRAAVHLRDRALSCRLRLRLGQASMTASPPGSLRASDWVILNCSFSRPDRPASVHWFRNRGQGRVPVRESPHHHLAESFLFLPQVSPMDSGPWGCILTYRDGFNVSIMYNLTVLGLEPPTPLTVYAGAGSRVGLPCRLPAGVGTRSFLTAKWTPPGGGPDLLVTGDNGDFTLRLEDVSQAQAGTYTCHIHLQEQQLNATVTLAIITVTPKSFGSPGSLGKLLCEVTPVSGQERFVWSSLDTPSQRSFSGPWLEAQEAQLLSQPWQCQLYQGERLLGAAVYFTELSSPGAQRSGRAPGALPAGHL
Kind of assay: FACS competition: mAb preincubated with human LAG-3(ECD)-mFc (1 ug/ml); binding to MHC class II on Daudi cells detected with anti-mouse Fc-PE. The procedure:
Human Daudi cells were cultured in RPMI+10% FBS. Human LAG-3(ECD)-mFc protein (human LAG-3 ECD fused to mouse Fc) at 1 μg/ml final concentration was incubated with purified mouse, humanized, or chimeric anti-LAG-3 mAbs at various concentrations for 15 minutes at 4° C. The mixture was then added to 100,000 human Daudi cells in a 96-well round bottom plate, mixed and incubated for 15 minutes on ice. Cells were then centrifuged at 1,000 rpm for 5 minutes and washed with FACS buffer (PBS supplemented with 5% BSA) three times. The cells were then incubated with PE-conjugated goat anti-mouse Fc polyclonal antibodies on ice for 15 minutes, washed with FACS buffer three times and then resuspended in FACS buffer containing 0.1 μg/ml PI (propidine iodine) for live/dead cell gating. Cells were then run through the FACS Caliber instrument and the data were analyzed by the Flowjo software. Results of the inhibition of LAG-3 binding to Daudi cells by chimeric mAbs B1C, B3C, B4C, BSC, B9C, and B11C are shown in FIG. 4B.
The mouse anti-hLAG-3 mAbs B5 and B7 were humanized to reduce the potential of immunogenicity when used in human patients. The CDRs in both the heavy and light chains of the mouse mAb were grafted into human framework that have the highest possibility of maintaining the proper structure required for antigen binding. Backmutations from human reside to mouse residue were designed when necessary. The sequences of the humanized VH and VL regions are shown in Table 11 and Table 12, respectively. The humanized VH and VL regions were fused to the constant regions of human IgG4 heavy chain and kappa light chain, respectively, to generate humanized mAbs. Constructs corresponding to the mAb sequences were used for transient transfection in 293E cells. Purified mAbs were analyzed for their ability to inhibit hLAG-3 binding to MHC class II molecules on Daudi cells.

Substitutions are numbered along the chain they refer to.

A word on the IC50: it is the midpoint of a concentration-inhibition curve.

B1: B5(H3L2) (antibody, V domains shown)
VH: QVQLVQSGAVVKKPGASVKMSCKASGYTFTGYYMNWMRQAPGQSLEWLAVINPYNGDTAYNRKFKGRATLTVDKSTSTAYMELSSLRSEDTAVYYCARDDGYHVRFFDVWGQGTTVTVSS
VL: DIQMTQSPSSLSASVGDRVTITCRSSQDISDYLSWLQQKPGGAIKSLIYSTSTLDSGVPSRFSGSRSGTDFTLTISSLQPEDFATYYCLQYASSPPTFGGGTKVEIK
notes: Humanized VH and VL fused to constant regions of human IgG4 heavy chain and kappa light chain; also called humanized B5 with B5/H3 heavy chain and B5/L2 light chain
For the molecule B1, the IC50 was found to be 2.85 nM.

B2: B5(H2L2) (antibody, V domains shown)
VH: B1 VH with V10E, A49G, A68V
VL: B1 VL
notes: Humanized VH and VL fused to constant regions of human IgG4 heavy chain and kappa light chain; also called humanized B5 with B5/H2 heavy chain and B5/L2 light chain
Molecule B2 registered an IC50 of 1.59 nM.

B3: B5(H3L3) (antibody, V domains shown)
VH: B1 VH
VL: B1 VL with F71Y
notes: Humanized VH and VL fused to constant regions of human IgG4 heavy chain and kappa light chain; also called humanized B5 with B5/H3 heavy chain and B5/L3 light chain
The molecule B3 gave an IC50 of 2.91 nM.

B4: B5(H3L1) (antibody, V domains shown)
VH: B1 VH
VL: B1 VL with I44P
notes: Humanized VH and VL fused to constant regions of human IgG4 heavy chain and kappa light chain; also called humanized B5 with B5/H3 heavy chain and B5/L1 light chain
In turn, B4 registered an IC50 of 6.77 nM.

B5: B5(H4L1) (antibody, V domains shown)
VH: B1 VH with V5R, P41H, A97V
VL: B1 VL with I44P
notes: Humanized VH and VL fused to constant regions of human IgG4 heavy chain and kappa light chain; also called humanized B5 with B5/H4 heavy chain and B5/L1 light chain
B5: the IC50 was 5.32 nM.

B6: B5(H1L4) (antibody, V domains shown)
VH: B1 VH with V10E, M37V, A49G, A68V, A79V
VL: B1 VL with S46R, S60K, T69S, F71Y
notes: Humanized VH and VL fused to constant regions of human IgG4 heavy chain and kappa light chain; also called B5(HIL4); humanized B5 with B5/H1 heavy chain and B5/L4 light chain
In the case of B6, the IC50 was found to be 0.98 nM.

B7: B7(H4L5) (antibody, V domains shown)
VH: EVQLVQSGAEVKKPGASVKVSCKASGYTFSDYNLNWVRQAPGQTLEWMGLINLDSAATVYNQKFKGKATMTRDQSTSTAYMELSSLRSEDTAVYYCASYDYWGQGTLVTVSS
VL: DIQMTQSPSSLSASVGDRVTITCRASQDISHYLNWFQQKPGKAPKLLIYETSTLDFGVPSRFSGSGSGTDFTFTISSLQPEDIATYYCLQYATYPLTFGGGTKVEIK
notes: Humanized VH and VL fused to constant regions of human IgG4 heavy chain and kappa light chain; also called humanized B7 with B7/H4 heavy chain and B7/L5 light chain
Molecule B7 registered an IC50 of 1.35 nM.

B8: B7(H2L8) (antibody, V domains shown)
VH: B7 VH with K67R, A68V, Q74T, A79V
VL: B7 VL with L46R
notes: Humanized VH and VL fused to constant regions of human IgG4 heavy chain and kappa light chain; also called humanized B7 with B7/H2 heavy chain and B7/L8 light chain
B8: the IC50 stood at 0.74 nM.

B9: B7(H5L5) (antibody, V domains shown)
VH: B7 VH with T28S, R72I
VL: B7 VL
notes: Humanized VH and VL fused to constant regions of human IgG4 heavy chain and kappa light chain; also called humanized B7 with B7/H5 heavy chain and B7/L5 light chain
B9 displayed an IC50 of 0.28 nM.

B10: B7(H4L8) (antibody, V domains shown)
VH: B7 VH
VL: B7 VL with L46R
notes: Humanized VH and VL fused to constant regions of human IgG4 heavy chain and kappa light chain; also called humanized B7 with B7/H4 heavy chain and B7/L8 light chain
B10 displayed an IC50 of 0.7 nM.

B11: B7(H2L5) (antibody, V domains shown)
VH: B7 VH with K67R, A68V, Q74T, A79V
VL: B7 VL
notes: Humanized VH and VL fused to constant regions of human IgG4 heavy chain and kappa light chain; also called humanized B7 with B7/H2 heavy chain and B7/L5 light chain
Turning to B11, the IC50 is 1.59 nM.

B12: B7(H1L8) (antibody, V domains shown)
VH: B7 VH with T44G, K67R, A68V, Q74T, A79V
VL: B7 VL with L46R
notes: Humanized VH and VL fused to constant regions of human IgG4 heavy chain and kappa light chain; also called humanized B7 with B7/H1 heavy chain and B7/L8 light chain
For the molecule B12, the IC50 is 0.9 nM.

B13: B7(H6L8) (antibody, V domains shown)
VH: B7 VH with V2F, T28S, R72I
VL: B7 VL with L46R
notes: Humanized VH and VL fused to constant regions of human IgG4 heavy chain and kappa light chain; also called humanized B7 with B7/H6 heavy chain and B7/L8 light chain
Take B13: the IC50 was found to be 1.19 nM.
